Assay results taken from patent US9180187B2, “Medicament for treating and/or preventing cancer” (TORAY INDUSTRIES, INC., priority 2010, dated 2015).

Key:
T24 = experiment: ADCC activity, chromium-51 release; type: cell-based, human; conditions: bladder cancer cell line
Procedure: (§1) The above-selected anti-CAPRIN-1 monoclonal antibodies #1 to #11 were evaluated for their cytotoxic activities against cancer cells (ADCC activity). Hybridomas producing the monoclonal antibodies #1 to #11 were each cultured using hybridoma SFM medium (Invitrogen). The thus obtained supernatant was purified using Hitrap ProteinA Sepharose FF (GE HealthCare), replaced with PBS(−), and then filtered through 0.22 μm filter (Millipore). The obtained filtrates were used as antibodies for assay. The human breast cancer cell line MDA-MB-157 (10^6 cells) was collected in a 50-ml centrifuge tube, to which 100 μCi chromium(Cr)-51 was then added, and incubated at 37° C. for 2 hours. Subsequently, the cells were washed 3 times with RPMI1640 medium containing 10% FBS, and then dispensed into each well of a 96-well V-bottom plate at 10^3 cells per well. The thus obtained cells are used as target cell. The above purified antibodies (1 μg each) were added to the cells. Separately, mouse lymphocytes separated from the mouse spleen were further added (2×10^5 cells) and then cultured under conditions of 37° C. and 5% CO2 for 4 hours. After culture, the amount of chromium(Cr)-51 released from cytotoxically impaired tumor cells in a culture supernatant was measured, so that the ADCC activity of each anti-CAPRIN-1 antibody against cancer cells was calculated. […] On the other hand, similar procedures were performed using the monoclonal antibodies (which were prepared in Example 2) reactive with the CAPRIN-1 protein itself, but not reactive with the surface of cancer cells, no cytotoxic activity was observed (see FIG. 1). […] Similarly, the anti-CAPRIN-1 antibodies were examined for ADCC activity against other human cancer cell lines including glioma cell lines (T98G and U373), lung cancer cell lines (A549 and QG56), renal cancer cell lines (Caki-1 and ACHN), a uterine cervix cancer cell line (SW756), a bladder cancer cell line (T24), an esophageal cancer cell line (KYSE180), gastric cancer cell lines (MNK28 and MNK45), a colorectal cancer cell line (SW480), a leukemia cell line (AML5), and a lymphoma cell line (Ramos).

A549 = experiment: ADCC activity, chromium-51 release; type: cell-based, human; conditions: lung cancer cell line
Procedure: as §1

Caki-1 = experiment: ADCC activity, chromium-51 release; type: cell-based, human; conditions: renal cancer cell line
Procedure: as §1

QG56 = experiment: ADCC activity, chromium-51 release; type: cell-based, human; conditions: lung cancer cell line
Procedure: as §1

AML5 = experiment: ADCC activity, chromium-51 release; type: cell-based, human; conditions: leukemia cell line
Procedure: as §1

U373 = experiment: ADCC activity, chromium-51 release; type: cell-based, human; conditions: glioma cell line
Procedure: as §1

KYSE180 = experiment: ADCC activity, chromium-51 release; type: cell-based, human; conditions: esophageal cancer cell line
Procedure: as §1

MNK28 = experiment: ADCC activity, chromium-51 release; type: cell-based, human; conditions: gastric cancer cell line
Procedure: as §1

[1] = tested on: MCF-7 human breast cancer cell line; experiment: In vivo combination therapy in tumor-bearing nude mice transplanted with MCF-7; conditions: experimental section 2 (anti-CAPRIN-1 antibody = #9, 5 mg/kg i.p.), day 26, mouse PBMC given to all groups
Procedure: IgG2b (R&D systems, catalog No. MAB11291)) were administered in combination, a group to which an antitumor agent and anti-CAPRIN-1 monoclonal antibody were administered in combination, and a group to which control (PBS(−) was administered. In addition, mouse PBMC was administered to all the administration groups. […] PBMC separated from Balb/c mouse spleen was intravenously administered to each mouse at 1×10^7 cells/0.2 mL (RPMI1640) on days 0, 8, and 15 after the start of the experiment. […] PBMC separated from Balb/c mouse spleen was intravenously administered to each mouse at 1×10^7 cells/0.2 mL (RPMI1640) on days 0, 8, and 15 after the start of the experiment. Paclitaxel was intraperitoneally administered to each of 5 tumor-bearing mice at 15 mg/kg/shot on days 0 and 3 after the start of the experiment. PBMC separated from Balb/c mouse spleen was intravenously administered to each mouse at 1×10^7 cells/0.2 mL (RPMI1640) on days 0, 8, and 15 after the start of the experiment. Docetaxel was intraperitoneally administered to each of 5 tumor-bearing mice at 10 mg/kg/shot on days 0 and 3 after the start of the experiment. PBMC separated from Balb/c mouse spleen was intravenously administered to each mouse at 1×10^7 cells/0.2 mL (RPMI1640) on days 0, 8, and 15 after the start of the experiment. […]

B1: monoclonal antibody #9: mouse anti-CAPRIN-1 monoclonal antibody; heavy chain variable region SEQ ID NO: 103, light chain variable region SEQ ID NO: 107 (antibody, listed as Mus musculus, V domains shown)
VH: PRASLGVSETLLCTSGFTFTDYYMSWVRQPPGKALEWLGFIRNKANGYTTEYSASVKGRFTISRDNSQSILYLQMNTLRAEDSATYYCARANWAFDYWGQGTTVTVSSK
VL: SGDRVSLSCRASQSISNYLHWYQQKSHESPRLLIKYASQSISGIPSRFSGSGSGTDFTLSINSVETEDFGMYFCQQSNSWPYTFGGGTKLEIKQ
ADCC activity against T24 (T24): ≥ 18% | ADCC activity against A549 (A549): ≥ 24% | ADCC activity against Caki-L (Caki-1): ≥ 23% | ADCC activity against QG56 (QG56): ≥ 20% | ADCC activity against AML5 (AML5): ≥ 10% | ADCC activity against U373 (U373): ≥ 16% | ADCC activity against KYSE180 (KYSE180): ≥ 22% | ADCC activity against MNK28 (MNK28): ≥ 15% | tumor volume relative to PBS(−) control group designated at 100% [1]: about 45%
